Laboratory results published in patent publication US20170073415A1 (NUMAB, published 2017).
Positions count from the first letter of the chain named.

B1: Construct 1, bispecific anti-CD3×IL5R single-chain diabody comprising the humanized variable domain of clone-06 (bispecific antibody, part only; not given: anti-IL5R domains and linkers, part only)
chain, part: DIQMTQSPSSLSASVGDRVTITCQSSESVYNNKRLSWYQQKPGKAPKLLIYTASSLASGVPSRFSGSGSGTDFTLTISSLQPEDFATYYCQGEFTCSNADCFTFGQGTKLTVLGEVQLVESGGGLVQPGGSLRLSCAASGFPLSSYAMIWVRQAPGKGLEWIGMILRAGNIYYASWVKGRFTISRDNSKNTVYLQMNSLRAEDTAVYYCARRHYNREGYPIGIGDLWGQGTLVTVSS
B2: clone-06 (monoclonal rabbit anti-CD3ε antibody) (antibody, V domains shown)
VH: QSVEESGGRLVTPGTPLTLTCTVSGFPLSSYAMIWVRQAPGKGLEWIGMILRAGNIYYASWVKGRVTISKTSTTVDLKITSPTTEDTATYFCARRHYNREGYPIGIGDLWGPGTLVTVSS
VL: AQVLTQTPSSVSAAVGGTVTISCQSSESVYNNKRLSWFQQKPGQPPKQLIYTASSLASGVPSRFKGSGSGTQFTLTISDLECDDAATYYCQGEFTCSNADCFTFGGGTEVVVKG
B3: clone-03 (monoclonal rabbit anti-CD3ε antibody) (antibody, V domains shown)
VH: QSLEESGGRLVTPGTPLTLTCTVSGFPLNRYAMLWVRQAPGKGLEWIGLITRADKKYYASWAKGRFTISKTSTTVDLEITGPTTEDTATYFCARRHYNTDGYPIAIGDLWGPGTLVTVSS
VL: B2 VL with S26N, S28N, V29I, N31S, K33N, K47N, T52S, T95N, S97N, N98S
B4: clone-04 (monoclonal rabbit anti-CD3ε antibody) (antibody, V domains shown)
VH: QSLEESGGRLVKPDETLTLTCTVSGFPLSSYAMGWFRQAPGKGLEWIGMILRSDNTYYASWAKGRFTISKTSTTVDLKITSPTTEDTATYFCARRHYNASGNPIAIGDLWGPGTLVTVSS
VL: B2 VL with S22N, E27Q, K33N, Q48L, A53T, Q72E, D83A, T95S, N98R, T103N
B5: clone-10 (monoclonal rabbit anti-CD3ε antibody) (antibody, V domains shown)
VH: B3 VH with N29S, R30S, Y31F, L49M, T51M, D54H, K55N, K56M, G81S, D100Y
VL: AQVLTQTPSSVSAAVGGTATISCQSNENIYSNNRLSWFQQKAGQPPNQLIYSASSLASGVPSRFKGSGSGTQFTLTISDLECDDAATYYCQGEFSCSSADCFTFGGGTEVVVKG
B6: clone-02 (monoclonal rabbit anti-CD3ε antibody) (antibody, V domains shown)
VH: QSLEESGGRLVTPGTPLTLTCTVSGFPLSAYAMIWVRQAPGKGLEWIGMIIRSGTVYYANWAKGRFTISKTSTTVDLKITSPTTEDTATYFCARRHYNADGYPIGIGDLWGPGTLVTVSS
VL: AQVLTQTPSSVSAVVGGTVTISCQSSESVYSNNRLSWFQQKPGQPPKLLIYSASTLASGVPSRFKGSGSGTQFTLTITDLECDDAATYFCQGEFSCSSVDCFSFGGGTEVVVKG
B7: bispecific anti-IL5R×CD3ε single-chain diabody containing Numab's humanized clone 6 anti-CD3 variable domain (Example 9) (bispecific antibody)
chain: DIQMTQSPSSLSASVGDRVTITCQASQNIYSNLAWYQQKPGKAPKLLIYRASTLASGVPSRFSGSGSGTDFTLTISSLQPEDFATYYCQSNYGINYYGAAFGQGTKLTVLGGGGGSEVQLVESGGGLVQPGGSLRLSCAASGFPLSSYAMIWVRQAPGKGLEWIGMILRAGNIYYASWVKGRFTISRDNSKNTVYLQMNSLRAEDTAVYYCARRHYNREGYPIGIGDLWGQGTLVTVSSGGGGSGGGGSGGGGSGGGGSDIQMTQSPSSLSASVGDRVTITCQSSESVYNNKRLSWYQQKPGKAPKLLIYTASSLASGVPSRFSGSGSGTDFTLTISSLQPEDFATYYCQGEFTCSNADCFTFGQGTKLTVLGGGGGSEVQLVESGGGLVQPGGSLRLSCAASGFSLSSYDMTWVRQAPGKGLEWIGIIYVSGSAYYASWAKGRFTISRDNSKNTVYLQMNSLRAEDTAVYYCARINYGLDLWGQGTLVTVSS

Tests used:
[1] = biological target: human CD3ε expressed on the cell surface of T cells (Jurkat clone E6-1; human CD8+ T cells) (human) (UniProt P07766); assay: cell-based or functional assay
[2] = biological target: human CD3ε expressed on the cell surface of T cells (Jurkat clone E6-1; human CD8+ T cells) (human) (UniProt P07766); assay: cell-based or functional assay; remark: listed apart in the source
[3] = biological target: human heterodimeric single-chain CD3εγ extracellular domain (human) (UniProt P07766); assay: SPR, human scCD3εγ ECD immobilised, scDb injected
[4] = biological target: T1, human CD3ε expressed on the cell surface of T cells (Jurkat clone E6-1; human CD8+ T cells) (human, UniProt P07766 23-207); assay: cell-based or functional assay
[5] = biological target: T1, human CD3ε expressed on the cell …; assay: cell-based or functional assay; remark: listed apart in the source

Row | Molecule | Fold increase in CD69 expression [MFI normalized to neg. ctrl.], 1.25 µg/ml anti-CD3 IgG, Jurkat cells, 24 h [4] [fold] | Fold increase in CD69 expression [MFI normalized to neg. ctrl.], 5 µg/ml anti-CD3 IgG, Jurkat cells, 24 h [4] [fold] | Fold increase in CD69 expression [MFI normalized to neg. ctrl.], 20 µg/ml anti-CD3 IgG, Jurkat cells, 24 h [4] [fold] | further results
1 | OKT3 (BioLegend, Cat. No. 317302) (antibody) |  |  |  | Fold increase in CD69 expression [MFI normalized to neg. ctrl.], 1.25 µg/ml anti-CD3 IgG, Jurkat cells, 24 h [1]: 1.8 fold; Fold increase in CD69 expression [MFI normalized to neg. ctrl.], 5 µg/ml anti-CD3 IgG, Jurkat cells, 24 h [1]: 2.5 fold; Fold increase in CD69 expression [MFI normalized to neg. ctrl.], 20 µg/ml anti-CD3 IgG, Jurkat cells, 24 h [1]: 3.1 fold
2 | TR66 (Novus Biologicals, Cat. No. NBP1-97446) (antibody) |  |  |  | Fold increase in CD69 expression [MFI normalized to neg. ctrl.], 1.25 µg/ml anti-CD3 IgG, Jurkat cells, 24 h [1]: 1.6 fold; Fold increase in CD69 expression [MFI normalized to neg. ctrl.], 5 µg/ml anti-CD3 IgG, Jurkat cells, 24 h [1]: 2.2 fold; Fold increase in CD69 expression [MFI normalized to neg. ctrl.], 20 µg/ml anti-CD3 IgG, Jurkat cells, 24 h [1]: 3 fold
3 | B1 |  |  |  | Potency to lyse target cells [EC50] (CHO-IL5R cells, CD8+ T cells, 88 h) [2]: 0.1 nM; Potency to stimulate IL-2 secretion by T cells [EC50] [2]: 0.96 nM; Kd [3]: 11.5 nM
4 | B2 | 2.7 | 5.1 | 5.3 | 
5 | B3 | 2.6 | 4.6 | 6.6 | 
6 | B4 | 2.6 | 3.5 | 7.8 | 
7 | B5 | 2.6 | 4.2 | 6.2 | 
8 | B6 | 3.3 | 4.6 | 7.4 | 
9 | B7 |  |  |  | EC50 of specific lysis of CHO-IL5R target cells by CD8+ T cells at 64 hours [5]: 0.31 nM
